Source: publication PMC9692666, “The Inhibitory Effects and Cytotoxic Activities of the Stem Extract of Sarracenia purpurea against Melanoma Cells and the SsbA Protein” (Plants, 2022)
Like-named read-outs stand apart in the source and are kept apart here.

How the values were obtained:
[1] = target: T1, SaSsbA (Staphylococcus aureus) (UniProt A0A0D1JHQ1); assay: EMSA; conditions: EMSA: 40 mM Tris-HCl pH 7.5, 50 mM NaCl, 37 C, 60 min, 30 fmol/uL DNA (30 nM); 8% native PAGE in TBE
T1 sequence: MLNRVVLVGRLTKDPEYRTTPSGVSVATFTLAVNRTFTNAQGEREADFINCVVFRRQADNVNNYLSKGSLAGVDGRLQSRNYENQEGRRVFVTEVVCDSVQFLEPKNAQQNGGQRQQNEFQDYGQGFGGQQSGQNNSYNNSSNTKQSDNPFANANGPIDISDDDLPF

SaSsbA [2] = target: T2, SaSsbA (Staphylococcus aureus, UniProt A0A0D1JHQ1); assay: EMSA inhibition of ssDNA binding
T2 construct: gene ssb; tetramer in crystal
T2 sequence (A0A0D1JHQ1 1-167): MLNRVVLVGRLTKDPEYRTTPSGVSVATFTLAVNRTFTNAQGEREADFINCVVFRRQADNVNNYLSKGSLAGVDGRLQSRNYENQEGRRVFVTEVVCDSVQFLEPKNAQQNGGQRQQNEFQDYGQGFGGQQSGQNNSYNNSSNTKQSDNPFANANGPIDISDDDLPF

SaSsbA [3] = target: T3, SaSsbA (Staphylococcus aureus, UniProt A0A0D1JHQ1 1-167); assay: EMSA; EMSA: 40 mM Tris-HCl pH 7.5, 50 mM NaCl, 37 C, 60 min, 30 fmol/uL DNA (30 nM); 8% native PAGE in TBE; conditions: protein: recombinant; chain copies: 4; label: 5' biotin; single strand
SaSsbA [4] = target: T3, SaSsbA; assay: EMSA; no shift up to 10 uM protein; EMSA: 40 mM Tris-HCl pH 7.5, 50 mM NaCl, 37 C, 60 min, 30 fmol/uL DNA (30 nM); 8% native PAGE in TBE; conditions: protein: recombinant; chain copies: 4; label: biotin on PS4 (strand 1); blunt

“CCCGAATTCGGATAGCTCGGTACCCTTTTTTTTTTTTTTTTTTTTTTTTT / GGGTACCGAGCTATCCGAATTCGGG [PS4/PS3-3'-dT25]” was tested, and the K half [1] was 940 nM.

For `O=c1c(O)c(-c2cc(O)c(O)c(O)c2)oc2cc(O)cc(O)c12` [myricetin], the IC50 (SaSsbA [2]; read-out: no inhibition at 300 μM) was > 300 µM.

With `O=C1c2c(O)cc(O)cc2O[C@H](c2ccc(O)c(O)c2)[C@H]1O` [dihydroquercetin] the IC50 (SaSsbA [2]; read-out: no inhibition at 1000 μM) was > 1000 µM.

For `O=C1c2c(O)cc(O)cc2O[C@H](c2ccc(O)cc2)[C@H]1O` [dihydrokaempferol], the IC50 (SaSsbA [2]; read-out: IC50) was 750 ± 62 µM.

TTTTTTTTTTTTTTTTTTTT (ssDNA) [dT20] was tested, and the “apparent K (half saturation)” value (SaSsbA [3]) was 1770 ± 110 nM.

With TTTTTTTTTTTTTTTTTTTTTTTTTTTTTT (ssDNA) [dT30] the “apparent K (half saturation)” value (SaSsbA [3]) was 460 ± 30 nM.

TTTTTTTTTTTTTTTTTTTTTTTTTTTTTTTTTTT (ssDNA) [dT35] was tested, and the “apparent K (half saturation)” value (SaSsbA [3]) was 360 ± 20 nM.

B1: dT59 (ssDNA)
DNA: TTTTTTTTTTTTTTTTTTTTTTTTTTTTTTTTTTTTTTTTTTTTTTTTTTTTTTTTTTT
B1 was tested, and the “apparent K (half saturation)” value (SaSsbA [3]) was 240 ± 10 nM.

B2: PS4/PS3 (dsDNA)
DNA 1: GGGTACCGAGCTATCCGAATTCGGG
DNA 2: CCCGAATTCGGATAGCTCGGTACCC
B2: no binding (SaSsbA [4]).
